In paper PMC11638004, “Phosphorylation of auxin signaling repressor IAA8 by heat-responsive MPKs causes defective flower development” (Plant Physiology, 2024):

Key:
Assay in all cases: pull-down; 2 μg GST-IAA8 or GST on glutathione-Sepharose-4B beads, 5 μg His-MPK added, overnight at 4°C; 50 mM Tris-HCl pH 7.5, 200 mM NaCl, 0.1 mM EDTA, 0.5 mM DTT, 1% Triton X-100; four washes; immunoblot with anti-His
Conditions in all cases: both partners purified
His-MPK6 = biological target: T1, His-MPK6 (Arabidopsis thaliana, UniProt Q39026 1-395)
T1 construct: The N-terminal position of the His tag is read from the name His-MPK6 and the vector pQE30; also called His-fused MPK6; source: E. coli M15, purified (Ni-NTA agarose); not shown: His, N-terminal, kept
T1 sequence (Q39026 whole entry, the tested form may be a part): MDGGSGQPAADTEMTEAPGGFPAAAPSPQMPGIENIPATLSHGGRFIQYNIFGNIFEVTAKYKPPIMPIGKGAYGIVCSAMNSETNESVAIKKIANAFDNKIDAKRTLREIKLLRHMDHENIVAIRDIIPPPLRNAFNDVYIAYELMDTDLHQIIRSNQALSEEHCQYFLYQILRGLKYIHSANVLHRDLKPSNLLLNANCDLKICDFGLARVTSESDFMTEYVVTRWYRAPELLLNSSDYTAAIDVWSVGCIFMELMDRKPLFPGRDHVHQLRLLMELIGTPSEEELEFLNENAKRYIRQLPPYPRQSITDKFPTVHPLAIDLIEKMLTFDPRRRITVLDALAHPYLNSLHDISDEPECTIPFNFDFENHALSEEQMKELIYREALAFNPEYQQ

His-MPK4 = biological target: T2, His-MPK4 (Arabidopsis thaliana, UniProt Q39024 1-376)
T2 construct: The N-terminal position of the His tag is read from the name His-MPK4 and the vector pQE30; also called His-fused MPK4; source: E. coli M15, purified (Ni-NTA agarose); not shown: His, N-terminal, kept
T2 sequence (looked up): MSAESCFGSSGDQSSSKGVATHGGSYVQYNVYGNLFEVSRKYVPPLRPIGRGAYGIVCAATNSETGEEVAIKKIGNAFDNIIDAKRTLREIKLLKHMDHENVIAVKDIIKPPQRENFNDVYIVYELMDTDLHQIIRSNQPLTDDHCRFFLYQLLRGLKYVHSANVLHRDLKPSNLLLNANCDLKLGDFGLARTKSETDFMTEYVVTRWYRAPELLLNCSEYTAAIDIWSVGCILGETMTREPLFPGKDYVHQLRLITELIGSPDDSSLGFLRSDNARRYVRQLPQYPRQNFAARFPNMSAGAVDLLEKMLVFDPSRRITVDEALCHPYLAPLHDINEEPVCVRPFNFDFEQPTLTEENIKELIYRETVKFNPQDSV

His-MPK3 = biological target: T3, His-MPK3 (Arabidopsis thaliana, UniProt Q39023 1-370)
T3 construct: The N-terminal position of the His tag is read from the name His-MPK3 and the vector pQE30; also called His-fused MPK3; source: E. coli M15, purified (Ni-NTA agarose); not shown: His, N-terminal, kept
T3 sequence (looked up): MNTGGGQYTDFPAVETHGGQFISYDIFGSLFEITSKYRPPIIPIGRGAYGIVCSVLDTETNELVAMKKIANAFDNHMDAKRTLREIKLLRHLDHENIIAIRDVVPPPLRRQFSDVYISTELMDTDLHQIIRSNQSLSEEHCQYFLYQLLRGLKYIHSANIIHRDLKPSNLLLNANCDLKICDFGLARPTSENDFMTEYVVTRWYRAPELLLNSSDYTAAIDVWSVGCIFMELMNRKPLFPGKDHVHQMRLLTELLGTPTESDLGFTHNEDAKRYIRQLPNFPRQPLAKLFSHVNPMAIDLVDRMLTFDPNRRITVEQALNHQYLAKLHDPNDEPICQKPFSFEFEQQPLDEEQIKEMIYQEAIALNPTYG

Measured: binding result

B1: GST-IAA8 (natural protein, Arabidopsis thaliana, UniProt Q38826 1-321, looked up)
chain: MSYRLLSVDKDELVTSPCLKERNYLGLSDCSSVDSSTIPNVVGKSNLNFKATELRLGLPESQSPERETDFGLLSPRTPDEKLLFPLLPSKDNGSATTGHKNVVSGNKRGFADTWDEFSGVKGSVRPGGGINMMLSPKVKDVSKSIQEERSHAKGGLNNAPAAKAQVVGWPPIRSYRKNTMASSTSKNTDEVDGKPGLGVLFVKVSMDGAPYLRKVDLRTYTSYQQLSSALEKMFSCFTLGQCGLHGAQGRERMSEIKLKDLLHGSEFVLTYEDKDGDWMLVGDVPWEIFTETCQKLKIMKGSDSIGLAPGAVEKSKNKERV
notes: IAA8 (Indole-3-Acetic Acid 8), Arabidopsis thaliana, At2g22670, full length, amplified from an Arabidopsis cDNA library and cloned into pGEX-4T-1; The N-terminal position of GST is read from the name GST-IAA8 and the vector pGEX-4T-1; also called GST-IAA8^WT; GST-fused IAA8; source: E. coli BL21 (DE3), purified (glutathione Sepharose-4B); not shown: GST, N-terminal, kept
binds: His-MPK6 | His-MPK4 | His-MPK3
